In the data set the test system is Cabbage Loopers. Nature of the data set: Cabbage looper diet overlay bioassay (mortality at 4 days after treatment). It is filed as in vivo. Here is the method: Insecticidal bioassay: Activity against Cabbage Loopers was tested on Diet Overlay Bioassays. The appropriate artificial insect diet was dispensed into each well of a standard 96 well plate and allowed to dry. Once the diet solidified, 100 μL of the treatment was pipetted into the appropriate number of wells and allowed to dry. A single 1st instar larva was delivered into each well of a 96 well plate. Mortality was scored at 4 days after treatment.
Efficacy is expressed as percentage mortality at 4 days post treatment. Results (in duplicates) in % mortality are shown in above Table/chart.
FIG. 6 a plot of an insecticidal bioassay results for various purified compound with and without Sct1. Previous studies have shown that the insecticidal activity present in MBI-203 whole cell broth is mainly attributed to the synergy between secondary metabolites (chromamide analogues) and protein (Sct1). However, for these studies were carried out using mixed chromamides (a mixture of four analogues) and Sct1. With an objective to determine which chromamide analogue is critical for the observed synergy, these individual compounds were purified from MBI-203 WCB, and tested as mixture and individual compounds using the chewing bioassay. All compounds were tested at 3% rate based on the concentration of each present in the MBI-203 WCB. “Chroma mix” contained the chromamides MW 860, MW 874A, MW 874B, and MW 876.
Determination of LC50 value for MW 860 & Sct1. Based on the results from the above testing of purified compounds with & without Sct1, the LC50 for the MW 860, Chromamides MIX and Sct1 was determined. The individual pure compound and their mix were combined with Sct1 and submitted for determining the LC50 value.
FIG. 7 a plot of the effect of variation of concentration of MW 860 & Sct1 on insecticidal activity. Dose dependent study for MW 860 & Sct1 as mixture. To determine the minimum range of concentration of both MW 860 and Sct1 needed for good insecticidal activity, different ratios of both compounds were prepared and submitted for insecticidal bioassay.

For orientation: mortality means the percentage killed. Turning to chromamide A [MW 860], the mortality (in combination with Sct1, 3% dose, Cabbage looper (CL) bioassay, two subsequent testings) is on record as 92%.
Turning to `O=C1NC(c2c[nH]c3ccc(O)cc23)=C/C1=C1\C(=O)Nc2ccccc21` [violacein], the “% Mortality (Cabbage Looper Assay) with sct1 (average of 4 bioassays)” value (in vivo) was 3.269%.

B1: sct1: Scott protein, ~20 kDa, extracellular secreted hypothetical protein of MBI-203, SEQ ID NO: 1 (protein, listed as Chromobacterium subtsugae)
chain: MSLTTDFLENPQAFMRSQAILIPAQVPPGNGKYQFAAQGAHAAVLQSTAASPNIPGFYAHPVANNINLFVLPTQQPARYYMFTDGMNGCQFLAYGPDRQHITVEHNNFIGDPTRYAARLAEVVALKPAYLLHISPSGVNNIPAGQYNSQQGVNIVGEYGQANGWRFWVRDRVDQNQGTVYGPL
Consider B1, for which the “insecticidal activity when tested individually” value (tested individually, 3% rate based on concentration in MBI-203 WCB (FIG. 6)) is reported as “did not show any significant activity”. In addition, where the note is “with sct1, 4 days post treatment, compounds at 2% rate based on concentration in MBI-203 WCB, * samples neat (D30 1%, CSM2 2%)”, the “% Mortality (Cabbage Looper Assay) with sct1 (average of 4 bioassays)” value was found to be 1.087%. Moreover, the “% Mortality (Cabbage Looper Assay) without sct1 (average of 3 bioassays)” value (without sct1, 4 days post treatment, compounds at 2% rate based on concentration in MBI-203 WCB, * samples neat (D30 1%, CSM2 2%)) is 1.087%.

For the origin of these results see patent publication US20250287954A1, “METHOD AND COMPOSITION OF SYNERGISTIC INSECTICIDAL MIXTURES” (priority 2022, published 2025).
